Reference: patent US20150368616A1, “METHODS FOR INDUCTION OF CELL FATES FROM PLURIPOTENT CELLS” (THE CLEVELAND CLINIC FOUNDATION, priority 2013, published 2015)

B1: Wnt3a: canonical Wnt ligand (protein, UniProt P56704 19-352, looked up)
Protein Wnt-3a: SYPIWWSLAVGPQYSSLGSQPILCASIPGLVPKQLRFCRNYVEIMPSVAEGIKIGIQECQHQFRGRRWNCTTVHDSLAIFGPVLDKATRESAFVHAIASAGVAFAVTRSCAEGTAAICGCSSRHQGSPGKGWKWGGCSEDIEFGGMVSREFADARENRPDARSAMNRHNNEAGRQAIASHMHLKCKCHGLSGSCEVKTCWWSQPDFRAIGDFLKDKYDSASEMVVEKHRESRGWVETLRPRYTYFKVPTERDLVYYEASPNFCEPNPETGSFGTRDRTCNVSSHGIDGCDLLCCGRGHNARAERRREKCRCVFHWCCYVSCQECTRVYDVHTCK
B2: K86/87 to Arginines: Ngn3 substitution mutant, lysines K86/87 replaced by Arginines, stabilized Ngn3 (protein, UniProt P70661 1-214, looked up, variant K86R K87R)
Neurogenin-3: MAPHPLDALTIQVSPETQQPFPGASDHEVLSSNSTPPSPTLIPRDCSEAEVGDCRGTSRKLRARRGGRNRPKSELALSKQRRSRRRRANDRERNRMHNLNSALDALRGVLPTFPDDAKLTKIETLRFAHNYIWALTQTLRIADHSFYGPEPPVPCGELGSPGGGSNGDWGSIYSPVSQAGNLSPTASLEEFPGLQVPSSPSYLLPGALVFSDFL

What was measured:
H1 hES cultures = test: Pan-CM induction with reduced serum levels and Wnt3a on the first day, transcript analysis; format: cell-based, human
Source text: FIG. 16 (A-B)—Reduction of serum levels increases endocrine formation. Pluripotent cultures were passaged onto matrigel and maintained in MEF-conditioned medium for three days before being induced to differentiate by exposure to Pan-CM. Three different conditions were used as outlined in panel A. In the first condition Pan-CM was supplemented with Wnt3a on the first day followed by a 0.2% concentration of FBS for the rest of the reaction. In the second condition Pan-CM was supplemented with 0.2% FBS for the second day on. In the third condition Pan-CM was supplemented with 2% KO serum replacer.
The Pan-CM mediated induction of insulin producing cells from the H1 hES cultures is improved when low concentrations of serum is used. […] Finally it was noted that lower levels of serum reduced to levels of MEOX1 (a gene associated with the mesodermal lineage) observed in these cultures.

[1] = system: stage 4 forward directed differentiating hES culture; test: Wnt3a at stage 4 of directed differentiation, RT-qPCR and immunohistochemistry; format: cell-based, human
Protocol: Panel A—Schematic representation of the two different directed differentiation protocols used throughout this series of experiments. The only difference between the two different differentiation protocols is the inclusion of Wnt3a at stage 4 of the directed differentiation protocol as illustrated. Control Cultures and cultures which had Wnt3a administrated at stage 4 were incubated an additional 4 days in maturation medium before RNA extractions and immunohistochemical analysis were performed. Panel B—An RT-qPCR analysis of the two differing conditions. Transcripts assayed are the endodermal marker FoxA2, the pancreatic progenitor marker Pdx1, the TrPC marker Nkx6.1 and the two endocrine markers Glucagon and Insulin. Note two different primer sets were used for insulin.
Panel C-J—Immunohistochemical analysis of stage 5 (day 4) cultures differentiated in the presence and absence of Wnt3a at stage 4. Panels CD and E-F compare the relative levels of C-peptide and Pdx1 respectively between the two differing differentiation protocols. Panels G-J show the combined expression of C-peptide and Pdx1 at both 10× magnification (panels G-H) and 20× Magnification (panels I-J).
To investigate the role of a canonical Wnt input on a PDX1+ progenitor population, Wnt3a was administered to a stage 4 forward directed differentiating hES culture. […] The relative expression of Pdx1 was increased over ˜5 fold over stage 4 cultures lacking the canonical input and relative transcript levels reached ˜3000 fold over hES controls. While Nkx6.1 levels were modest in comparison, only reaching a ˜3.3 fold increase over the stage 4 cultures lacking the canonical input and a relative transcript fold increase of ˜200 over hES controls. […] Both Glucagon and Insulin relative transcript levels were ˜2 fold greater in stage 4 cultures treated with Wnt3a as compared to stage 4 cultures lacking the canonical Wnt drive (FIG. 62 panel B). While there was a ˜5000 fold increase in Glucagon transcript levels and a ˜2500 fold increase in Insulin transcript levels when compared to hES levels. As a means to confirm the accuracy of the relative Insulin transcript levels two different set of primers were used and both primer sets produced similar results. In addition immunohistochemical analysis of these two different reactions was used to confirm the transcript analysis.

pluripotent cultures = test: Defined (cell conditioned) medium versus Pan-CM, 5 day induction with serum variations and Wnt3a; format: cell-based, human; conditions: Wnt3a on the first day of the induction, 5 day induction period
Protocol: FIG. 44 (A-B)—Cell conditioned medium improves over the Pan-CM induction of pluripotent cells. Pluripotent cultures were passaged onto matrigel and maintained in the presence of MEF conditioned medium for 3 days to maintain pluripotency. They were next subjected to either Pan-CM or our cell conditioned medium supplemented with either 2% KO serum replacer or low concentrations of FBS as defined in panel A. The addition of Wnt3a on the initial day of differentiation was also assayed. […] Note the occurrence of the trunk progenitor cell is best defined with the loss of NKX6.1.
We next explored the ability of our defined medium informed from the transcriptome and sectretome analysis of the Pan-MEF cultures to induce the differentiation of pluripotent cells towards pancreatic fates. This was performed in short term cultures with incubation periods only lasting 5 days (FIG. 43).

Ngn3 = test: Mutational series of Ngn3 in the HepG2 stability assay; format: cell-based
Source text: FIG. 66 (A-B) illustrates a mutational series of Ngn3, designed to stabilize the protein. A. listing of site directed point mutations. B. Testing of five substitution mutants.
Combined, these analyses served to focus us on the presence of lysines in the Helix 1/loop region and highlighted the importance of N-terminal acetylation protection as well. Of note, The K^118LTK^121 motif in the loop is completely conserved in Ngn3 in vertebrates, including teleosts and amphibians, and also between Ngn family members. Our approach to stabilizing Ngn3 is therefore to create an exhaustive point-substitution series of K>R to cover the entire protein (FIG. 66A), and also create deletion mutants of the N-, and C-termini flanking the bHLH domain. Because K121 is completely conserved in the bHLH family group, and positioned so that it aligns with the Helix 1 axis, this residue is likely critical for the folding/binding dynamics of the HLH domain, and mutation of this may likely impact DNA binding/function. Such constraints are not evident for K^118. We will also substitute the T120 residue in the KLTK loop to a Glutamic acid (E) to mimic a possible stabilizing phosphorylation event, which, based on phylogenetic comparisons to MASH1 may be of importance. […]

[2] = Wnt3A added to Pan-CM on the first day, then 0.2% FBS

Molecule | HNF1-B up regulation (H1 hES cultures; [2]) | HNF6 up regulation (H1 hES cultures; [2]) | insulin transcript levels (H1 hES cultures; Wnt3a on the first day of differentiation in Pan-CM) | Glucagon and Insulin relative transcript levels compared to stage 4 cultures lacking the canonical Wnt drive [1] | Glucagon transcript levels increase compared to hES levels [1] | Insulin transcript levels increase compared to hES levels [1] | Nkx6.1 increase over the stage 4 cultures lacking the canonical input [1] | Nkx6.1 relative transcript fold increase over hES controls [1] | Pdx1 relative expression over stage 4 cultures lacking the canonical input [1] | Pdx1 relative transcript levels over hES controls [1] | NKX6.1 expression (pluripotent cultures) | Ngn3 protein stability (Ngn3)
B1 | ~55 × | ~85 × | comparable to the Pan-CM induction with 2% KO serum replacer | ~2 fold | ~5000 fold | ~2500 fold | ~3.3 fold | ~200 fold | > 5 fold | ~3000 fold | improved | –
B2 | – | – | – | – | – | – | – | – | – | – | – | lead to stabilization
